This note sets out measurements from US20170160285A1 (VIB VZW, published 2017).

To fix the notation:
B1: NANOBODY CA8316 (VHH)
VHH: QLQLVESGGGLVQAGGSLRLSCAASGDTFSRYVMGWFRQAPGKERTFVVGISGGGGITRYADSVKGRFTISRDNAENTLYLEMNTLNPEDTAVYYCAATPADSAFMRNLRVYDYWGQGTQVTVSS
notes: Family 7; The same nanobody subcloned in pMESy4 and purified from E. coli is CA8332
B2: NANOBODY CA8318 (VHH)
VHH: QVQLVESGGGRVQAGDSLRLSCAASGRTFSPYAMGWFRQAPGKEREFVATINWSGDYTYYTDSVKGRFTTSRDNAKNTLYLEMNSLNAEDTAVYYCVARVGSPSSSDRAYQYWGQGTQVTVSS
notes: Family 8; also called CA8334 (pMESy4, E. coli)
B3: NANOBODY CA8424 (VHH)
VHH: QVQLVESGGDLVQAGGSLRLSCAASGGIFIINNMGWYRQTPGNQRELVAEITRAGNSNYADSVKGRFTISRDNAKNTVYLQMNRLKPEDTAVYYCNFNVRYYGEYWGQGTQVTVSS
notes: Family 29; also called CA8444 (pMESy4, E. coli)
B4: NANOBODY CA8315 (VHH)
VHH: QVQLVESGGGLVQAGGSLRLSCAASGRTFSNYAMGWFRQTPGKEREFVAAITWSGGATYYADSVKGRFIISRDNTKNTVYLQMNSLKPEDTAVYYCAADRKPYSYYPSDFGSWGQGTQVTVSS
notes: Family 5; also called CA8331 (pMESy4, E. coli)
B5: NANOBODY CA8402 (VHH)
VHH: QVQLVESGGGLVQAGGSLRLSCAASGRTFSNYAMGWFRQAPGKEREFVAAISWSGGKTLYAESVKGRFTISRDNAKNTVYLQMNSLKPEDTAVYYCAATPADLTVVAGPPRIEMWYWGQGTQVTVSS
notes: Family 19; also called CA8431 (pMESy4, E. coli)
B6: NANOBODY CA8319 (VHH)
VHH: QVQLVESGGGLVQAGGSLRLSCEASGRTSSSYVMGWFRRVSGKEREFVAAINPTGSSTYYADSVKGRFTISRDNSKNTVYVQMNGLKPEDTAVYYCAATRRDFYIIRNSRPQFDYWGQGTQVTVSS
notes: Family 10
B7: NANOBODY CA8403 (VHH)
VHH: QVQLVESGGGLVQAGGSLRLSCAASTRTFSNYVMGWFRQAPGKEREFVSAITSSGRGTSYADSVKGRFTISRDNAKNTVFLQMNSLKPEDTAVYYCAATAADYVLRSRPSVYSYWGQGTQVTVSS
notes: Family 20; also called CA8432 (pMESy4, E. coli)
B8: NANOBODY CA8406 (VHH)
VHH: QVQLVESGGGLVQPGGSLRLSCAASTNIFNLRSMGWYRQAPGKERELVATITTYNTNYADSVKGRFTISRDNAKKTMYLQMNSLRPEDTAVYYCNLQNRYDAMDYWGKGTQVTVSS
notes: Family 11
B9: NANOBODY CA8418 (VHH)
VHH: QVQLVESGGGLVQAGGSLRLSCAASGRTFSNYAMGWFRQAPGKEREFVAALTWSGGNTVYRDSVKGRFIITRDNAKNAVYLQMNSLKPEDTAVYYCASDRRPYRYNIGTAEGEYNYWGQGTQVTVSS
notes: Family 23
B10: NANOBODY CA8419 (VHH)
VHH: QVQLVESGGGLVQPGGSLRLSCAASGFTFSRFVMNWARQAPGKGLEWVSTINSDGDVTSYADSVKGRFTISRDNAKNTLYLQMNSLKPEDTAVYYCGKGWFLNRRDESRGQGTQVTVSS
notes: Family 24
B11: NANOBODY CA8314 (VHH)
VHH: QVQLVESGGGLVQAGDSLRLSCTASERAFSRYAMGWFRQAPGKERELVAAVSWAGGTTYYGDSVKGRFTISRDNAKITVYLQMNSLKPEDTAVYYCAAEAREFSVGSYYATEYDYWGQGTQVTVSS
notes: Family 4; also called CA8330 (pMESy4, E. coli)
B12: NANOBODY CA8312 (VHH)
VHH: QVQLVESGGGLVQAGGSKRLSCAASGRPFSNSAMGWFRQAPGKEREFVAAISWSGGNTYYADSVKGRFTISRDNAKNAVYLRMNSLEPEDTAVYYCAGDRQPYVYDLPTAQYQYDYWGQGTQVTVSS
notes: Family 1; also called CA8328 (pMESy4, E. coli)
B13: NANOBODY CA8421 (VHH)
VHH: QVQLVESGGGLVQAGGSLRLSCAASGRTFSNYAMGWFRQAPGKEREFVAHITWTGGITYYSDSVKGRFIISRDNAKNTVNLQMNSLKAEDTAVYYCAADRVPYRFGVPSINEYDYWGQGTQVTVSS
notes: Family 26
B14: NANOBODY CA8405 (VHH)
VHH: QVQLVESGGGLVQDGGSLRLSCTASGRTFSNNAMGWFRQEPGREREFVAAIRWNGIANYADSVKGRFTISGDNAKNTVYLQMNSLKPDDTAVYYCAAAIRDGHNYYASDMRRYDYWGQGTQVTVSS
notes: Family 21; also called CA8433 (pMESy4, E. coli)
B15: NANOBODY CA8408 (VHH)
VHH: QVQLVESGGGLVQAGDSLRLSCAASGLIVSNYAMGWFRQAPGKEREFVAYINWNGGVTYYTNSVKGRFTISRDNAKNTVYLQMNSLKPEDTAVYYCARTSRASVTTRVADFGYWGQGTQVTVSS
notes: Family 6; also called CA8109 (pMESy4, E. coli)
B16: NANOBODY CA8411 (VHH)
VHH: QVQLVESGGGLVQAGGSLRLSCAASARTFSRYGAGWFRQAPGKEREFVGAITWGGGRTKYADSVKGRFTISRDNSKNTVYLQMNSLKSEDTAVYYCASSSIEFGPLEDTYDYWGQGTQVTVSS
notes: Family 3
B17: NANOBODY CA8322 (VHH)
VHH: QVQLVESEGGLVQPGGSLRLSCAASGFTFKYYYMNWVRQAPGKGLEWVSRINQLGGTSYGDSVKGRFTISRDNAKNTLYLQMNSLVPEDTAVYYCARCPAGAACKVEYDYRGQGTQVTVSS
notes: Family 16; also called CA8338 (pMESy4, E. coli)

One test has as its target T1, Recombinant rat RIC8A (resistance to inhibitors of cholinesterase 8A) (rat, UniProt Q80ZG1 1-491, limits assumed).
T1 construct: In the FACS screening it was labelled at random on amines with DYLIGHT-405 NHS ester
T1 sequence (looked up): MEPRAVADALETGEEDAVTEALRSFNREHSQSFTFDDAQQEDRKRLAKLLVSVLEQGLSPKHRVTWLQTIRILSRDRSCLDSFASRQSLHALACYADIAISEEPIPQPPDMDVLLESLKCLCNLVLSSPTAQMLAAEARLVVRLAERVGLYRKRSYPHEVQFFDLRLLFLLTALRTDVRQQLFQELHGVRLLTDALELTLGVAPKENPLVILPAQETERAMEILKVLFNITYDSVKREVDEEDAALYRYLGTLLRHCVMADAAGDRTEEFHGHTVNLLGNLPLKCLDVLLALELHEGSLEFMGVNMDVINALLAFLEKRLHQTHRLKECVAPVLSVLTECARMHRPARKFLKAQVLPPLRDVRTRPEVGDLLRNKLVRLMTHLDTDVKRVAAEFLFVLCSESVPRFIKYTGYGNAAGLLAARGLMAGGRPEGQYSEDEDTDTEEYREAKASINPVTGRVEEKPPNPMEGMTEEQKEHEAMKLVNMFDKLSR
Briefly: FACS of yeast cells displaying the Nb, stained with 1 µM RIC8A-DYLIGHT-405; black = clone (CA8316 per legend), grey = irrelevant Nb.
As to B1, the binding result is recorded as “no binding (tested: 1 µM)”.

Another test deals with T2, Recombinant Gαi1 (heterotrimeric G protein alpha subunit i1) (rat, UniProt P10824 1-354).
T2 construct: In the FACS screening it was labelled at random on amines with DYLIGHT-488 NHS ester; The sentence reads 'Recombinant rat RIC8A (uniprot:Q80ZG1) and Gαi1 (uniprot:P10824)'
T2 sequence (P10824 whole entry, one chain of several): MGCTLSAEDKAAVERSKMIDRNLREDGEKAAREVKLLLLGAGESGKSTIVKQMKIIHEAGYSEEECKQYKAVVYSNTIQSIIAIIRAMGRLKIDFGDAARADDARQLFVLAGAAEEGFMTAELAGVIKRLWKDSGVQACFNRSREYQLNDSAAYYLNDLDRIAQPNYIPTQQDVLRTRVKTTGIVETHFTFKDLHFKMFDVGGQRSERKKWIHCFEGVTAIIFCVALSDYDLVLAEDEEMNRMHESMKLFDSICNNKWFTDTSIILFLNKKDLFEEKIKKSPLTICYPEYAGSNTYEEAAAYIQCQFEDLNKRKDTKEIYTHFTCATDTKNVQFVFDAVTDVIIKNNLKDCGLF
Briefly: FACS on single yeast clone displaying the Nb; Gαi1-DYLIGHT-488.
In the case of B2, the binding result is listed as “no binding (tested: 1 µM)”. Still for that read-out and setting: as for B3, the entry is “no binding (tested: 1 µM)”; as for B4, “no binding (tested: 1 µM)”. Still for that read-out and setting: to B5 belongs “no binding (tested: 1 µM)”; to B6, “no binding (tested: 1 µM)”; to B7, “no binding (tested: 1 µM)”. In the case of B8, the binding result was “no binding (tested: 1 µM)”. Regarding B9, the binding result was “no binding (tested: 1 µM)”. On the same count and under the same terms, to B10 belongs “no binding (tested: 1 µM)”; to B11, “no binding (tested: 1 µM)”. Turning to B12, the binding result was “no binding (tested: 1 µM)”.

With B13, the binding result is “no binding (tested: 1 µM)”. Turning to B14, the binding result is on record as “no binding (tested: 1 µM)”.

Regarding B15, the binding result is given as “no binding (tested: 1 µM)”.

For the molecule B16, the binding result is recorded as “no binding (tested: 1 µM)”.

The target in the next test is T1, Recombinant rat RIC8A (resistance to …). Briefly: FACS on single yeast clone displaying the Nb; RIC8A-DYLIGHT-405.
In the case of B2, the binding result is “no binding (tested: 1 µM)”. On the same count and under the same terms, as for B4, the entry is “no binding (tested: 1 µM)”; as for B5, “no binding (tested: 1 µM)”. On the same count and under the same terms, to B6 belongs “no binding (tested: 1 µM)”; to B7, “no binding (tested: 1 µM)”; to B11, “no binding (tested: 1 µM)”. The same measure, in the same setting: as for B12, the entry is “no binding (tested: 1 µM)”; as for B14, “no binding (tested: 1 µM)”.

The target in another test is T2, Recombinant Gαi1 (heterotrimeric G …). Briefly: FACS of yeast cells displaying the Nb, stained with 1 µM Gαi1(GDP)-DYLIGHT-488; black = clone (CA8322 per legend), grey = irrelevant Nb.
With B17, the binding result is given as “no binding (tested: 1 µM)”.

The target is the same in the next test. Nature of the test: FACS of yeast cells displaying the Nb, stained with 1 µM Gαi1(GDP)-DYLIGHT-488; black = clone (CA8316 per legend), grey = irrelevant Nb.
Consider B1, for which the binding result is on record as “no binding (tested: 1 µM)”.
